According to the RNAGym collection of RNA variant scans (doi:10.7554/elife.80360):

B1: HDV Ribozyme (parent)
chain: GGCCGGCAUGGUCCCAGCCUCCUCGCUGGCGCCGGCUGGGCAACAUUCCGAGGGGACCGUCCCCUCGGUAAUGGCGAAUGGGACCCA

Variants of: B1
Experiment: self-cleavage, relative activity (ratio to wild type); higher = more cleavage; co-transcriptional

Row | Variant | self-cleavage
1 | U9C G31C | 0.598
2 | U9C C33U | 0.895
3 | U9A G59A | 1.19
4 | U9A G59C | 1.03
5 | U9A C63U | 1.19
6 | U9C C85G | 0.731
7 | U9C C85U | 1.07
8 | U9C C19G | 0.0519
9 | U9C C19U | 0.208
10 | U9A A51G | 0.59
11 | U9A A51U | 0.914
12 | U9C C62G | 0.166
13 | U9C G50C | 0.886
14 | U9C G50U | 1.02
15 | A8U G59A | 0.79
16 | A8U G59C | 1.02
17 | U9A G52A | 0.99
18 | U9C C48G | 1.44
19 | U9C C48U | 0.748
20 | U9G A45U | 0.692
21 | U9G A45G | 0.684
22 | U9C G59U | 1.17
23 | U9C G59C | 1.09
24 | U9C G59A | 1.05

Row | Variant | self-cleavage
25 | U9C A45G | 0.95
26 | A8U U9C | 0.906
27 | A8U U9A | 0.63
28 | U9C A87C | 0.813
29 | U9C C49A | 0.703
30 | U9C C49U | 0.959
31 | U9C C49G | 1.03
32 | U9A C85U | 0.906
33 | U9A A70U | 0.997
34 | U9A A70C | 0.767
35 | U9C G74A | 0.653
36 | U9C C58A | 1.11
37 | U9C C58U | 0.886
38 | U9A G38A | 0.233
39 | U9A G38C | 0.237
40 | U9A G38U | 0.237
41 | U9A C33U | 0.808
42 | U9A C33A | 0.185
43 | U9A C33G | 0.0692
44 | U9A C30G | 0.138
45 | U9A C30A | 0.732
46 | U9A C30U | 0.776
47 | U9C A51G | 0.962
48 | A8U G67C | 0.718

Row | Variant | self-cleavage
49 | A8U G35A | 0.426
50 | U9C G10U | 0.731
51 | U9A U79C | 0.237
52 | U9A U79G | 0.529
53 | U9A A83U | 0.643
54 | U9A A83G | 0.67
55 | U9C G17C | 0.415
56 | U9C G17A | 1.08
57 | U9C G17U | 0.914
58 | U9A C41U | 1.07
59 | U9A C41G | 0.831
60 | U9A C84G | 0.554
61 | U9A C84A | 0.886
62 | U9C C44U | 0.739
63 | U9C C44A | 0.594
64 | U9A G39A | 0.665
65 | U9C U79G | 0.519
66 | U9C U60G | 0.723
67 | U9C C18U | 0.457
68 | U9C C18G | 0.138
69 | U9C C18A | 0.128
70 | U9A G54U | 1.06
71 | U9A G54C | 0.935
72 | U9C A56U | 1.04

Row | Variant | self-cleavage
73 | U9C A56G | 0.935
74 | U9G A77C | 0.185
75 | A8U U20C | 0
76 | A8U U20A | 0.166
77 | U9C C41U | 1.05
78 | U9A G17C | 0.297
79 | U9A G17U | 0.383
80 | U9A C32U | 0.911
81 | U9A C32A | 0.0898
82 | A8U G31C | 0.115
83 | A8U U12G | 0.594
84 | A8U U12A | 0.208
85 | U9C C86U | 1.35
86 | U9C C86G | 1.14
87 | U9C U72G | 0.582
88 | U9C C61A | 1.03
89 | U9C C61U | 0.81
90 | A8U U72C | 0.443
91 | A8U U72G | 0.289
92 | A8U U72A | 0.369
93 | U9A C58G | 0.929
94 | U9A C58A | 0.789
95 | U9A C58U | 0.77
96 | U9C U46A | 1.06

Row | Variant | self-cleavage
97 | A8U U69G | 0.59
98 | U9C C14A | 0.982
99 | U9A U60A | 0.923
100 | U9A G50U | 1.31
101 | U9A G50A | 1.12
102 | U9A G50C | 0.898
103 | U9A A87C | 1.04
104 | U9A A87U | 1.03
105 | U9A A87G | 1.13
106 | U9A U27G | 1.13
107 | U9C A77C | 0.364
108 | U9A G55C | 1.26
109 | A8U G50C | 0.939
110 | A8U G50U | 0.848
111 | U9A C57U | 1.19
112 | U9A C57A | 1.02
113 | U9A C64U | 1.04
114 | U9A C64G | 0.759
115 | U9C G68A | 1.17
116 | U9C G68U | 0.655
117 | U9C G52C | 1.02
118 | U9C C75U | 0.138
119 | U9C C75A | 0.115
120 | U9C C30G | 0.0462

Row | Variant | self-cleavage
121 | A8U G54A | 0.831
122 | A8U G54U | 0.574
123 | U9C G82U | 0.201
124 | U9A C44U | 0.95
125 | U9A C44G | 0.914
126 | U9A C44A | 0.831
127 | U9A G11A | 0.539
128 | U9A G11C | 0.609
129 | U9C G38C | 0.107
130 | U9C A71U | 0.969
131 | U9C A71C | 0.791
132 | U9A U23G | 0.7
133 | U9C U37C | 0.978
134 | U9C C21G | 0.277
135 | U9C C21A | 0.0639
136 | U9C C21U | 0.214
137 | U9A U47C | 0.997
138 | A8U G25U | 0.106
139 | U9A G34U | 0.374
140 | U9G A78G | 0.166
141 | U9G A78C | 0.208
142 | U9A G73C | 0.227
143 | U9A G73U | 0.244
144 | U9A G73A | 0.425

Row | Variant | self-cleavage
145 | U9C G80C | 0.256
146 | U9C G80A | 0.277
147 | U9C G80U | 0.193
148 | A8U G29A | 0.0852
149 | A8U G29U | 0.0437
150 | A8U U79C | 0.177
151 | U9G A87U | 0.853
152 | U9A C75G | 0.0665
153 | U9A G35A | 0.665
154 | U9A G35C | 0.44
155 | U9C G76U | 1.05
156 | U9C G76A | 1.05
157 | A8U G38C | 0.095
158 | A8U G38U | 0.326
159 | A8U G38A | 0.141
160 | U9A A78G | 1.04
161 | U9A A78U | 0.332
162 | U9A A78C | 0.359
163 | U9G A43U | 0.886
164 | U9A G29A | 0.0678
165 | U9A G29U | 0.0639
166 | U9A A45C | 0.723
167 | U9A A45U | 0.719
